For 133 substances, amyloid nucleation score results are on record in the supplement of paper PMC12042874.

± gives the uncertainty stated by the source.

This data set in a line: amyloid nucleation score (Sup35N fusion, yeast selection) (log enrichment); library NNK3; higher = more nucleation; inactive = no reads after selection. The method, boiled down:
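Three technical output replicates were used for random libraries. Psi-negative yeast expressing peptides of 20 random codons fused to Sup35N were induced with 100 μM copper sulfate for 24 hours and grown 7 days at 30°C on medium lacking adenine and uracil, and input and output plasmid inserts were Illumina-sequenced, excluding sequences with under 100 input reads. The nucleation score is the DiMSum log enrichment of output over input reads, centred on the mode score of non-aggregating sequences.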
Consider LCSAIGWSSACIFVWSYYTR, for which the amyloid nucleation score result was “inactive”.

For the substance LCSVDVVLPVKYCVLPDH, the amyloid nucleation score was determined as 1.76 ± 0.076. For LCTSLLKF the value was -0.5 ± 0.9. With LCVDVS, the amyloid nucleation score entry was “inactive”. LCVFL returned an amyloid nucleation score of 1.1 ± 0.15. For LCVFWCGIPDRVFCNNGWMV the value was “inactive”; for LCWVNQVREMGRWNTGVQSG, “inactive”; for LDCTHSTLFWWRRFVSAYSL, “inactive”. Under LDERCLLVGMAYMLVCY stands “inactive”. Under LDLCSRL stands “inactive”; under LDLDSNIGFISVLPF, “inactive”.

For the substance LDLDVDNVSSDGKTWMGLV, the amyloid nucleation score entry was “inactive”. In turn, LDMKPRQARTFFLNHGVLPA showed an amyloid nucleation score of 0.313 ± 0.78.

Turning to LDNTLDN, the amyloid nucleation score entry was “inactive”.

Turning to LEDRACVFNKLIVLQ, the amyloid nucleation score result was “inactive”. Under LENFRCPVEGAVQERFGANL stands “inactive”. For LENGVHVRRSIEF the value was “inactive”; for LENRSFNMMMFV, “inactive”. Under LERHL stands “inactive”.

Regarding LESFAGQAQWGCGSYQSFCL, the amyloid nucleation score result was “inactive”. For LFCIY the value was “inactive”; for LFDIVSQITLWQGPTHAFFK, “inactive”. Take LFGARDVFFER: the amyloid nucleation score result is “inactive”. With LFGCEQRYP, the amyloid nucleation score entry is “inactive”.

LFGCNERCFYFAF: the amyloid nucleation score entry was “inactive”. Under LFGGCLSLDDIVTDRLMTCF stands “inactive”; under LFGNSNRSGCSSLRQIGCLC, “inactive”; under LFGSF, “inactive”. For LFGYSNSRRHMIGMQSY the value was “inactive”. Under LFIRQG stands “inactive”. LFIWTDILTFLRS: the amyloid nucleation score entry is “inactive”. For LFLVA the value was “inactive”; for LFMCIAMM, 0.284 ± 0.46. Under LFMLGQLLTWDFHALSSGYV stands 0.523 ± 0.19; under LFMRCSYCSV, “inactive”; under LFNNFYLVSFGWLDGG, 2.31 ± 0.068. With LFNPMKTVYWHNLAIWHYDV, the amyloid nucleation score result was “inactive”. Under LFRFS stands “inactive”; under LFRIRQCFFYFSIFLVFSIK, “inactive”; under LFRLACVTNMRSNLLSYRRC, 0.131 ± 0.64. For LFRVSWMLGNKIDISKSIYR the value was “inactive”. As for LFSHESLVTTGLVAVFSLAK, the amyloid nucleation score entry was “inactive”. Under LFSSFTSPLRMRWLDRSYHF stands “inactive”; under LFTKRSYCCSCVVSGSEWAY, 0.852 ± 0.21; under LFVIINPQVTWLLFRMFESH, “inactive”. On to LFYCSNCGKGIIQLRVGLYP, for which the amyloid nucleation score entry was “inactive”. For LFYKREALMRGISSFKELSN the value was “inactive”; for LFYLGIYDFDGNW, “inactive”; for LGDAFWFEIH, “inactive”. LGFFSSSKLLVGGASASIVS: the amyloid nucleation score result is “inactive”. For LGFHTYRNLGKMHI the value was “inactive”.

LGGYFLFNIITVGSTGMRKH showed an amyloid nucleation score of 2.06 ± 0.089. For LGHVCILVQGGSKVRPTYGS the value was “inactive”; for LGHYAKPLSSVQQNRTNMGA, “inactive”; for LGKKLDCGDSMRSVRPICRG, “inactive”.

In turn, LGNGSLVIG came in with an amyloid nucleation score of 0.033 ± 0.27. Under LGPREQDLINFNWVFQYLKH stands “inactive”. Take LGSTKSPLSCVY: the amyloid nucleation score entry is “inactive”. For LGVCVWQCLGMSIVNALKRL the value was “inactive”; for LGVMSAVRAIGGFEILIGCV, “inactive”; for LGVRNDPQQSLPVQFGFELE, 0.041 ± 1.2.

As to LGVWRGIGPWRWAKKRWRVA, the amyloid nucleation score result was “inactive”. For LHCFIMLIKCDRVMIVTVQG the value was “inactive”.

Turning to LHITVEIWTLWK, the amyloid nucleation score entry is “inactive”.

On to LHKALQYTKTLSESRRLCNR, for which the amyloid nucleation score result was “inactive”. Under LHLTDLYYGF stands “inactive”; under LHPLYRFSANSSKDLFTSRT, “inactive”; under LHQSSTGLSC, “inactive”. Under LHRLMLTRCVPGFV stands -0.443 ± 0.98; under LHRSCAIAA, “inactive”. For LHSSNCCNEIVMRNRCWRKF the value was “inactive”.

With LHTPIMRNYR, the amyloid nucleation score result is “inactive”. For LHVLDYDPDLRCFQMLYMCG the value was “inactive”; for LHVSTRFA, “inactive”; for LIARCKRAIAGGY, “inactive”. Under LIASGASIVFSRTESVRCNT stands “inactive”; under LICYLYAKMC, “inactive”. For LIGNTSGMILHSTITDEAWL the value was “inactive”; for LIGSGV, “inactive”.

Consider LIIGCGIFSLNS, for which the amyloid nucleation score turned out to be 1.94 ± 0.068.

On to LIISCMQFLVYKKCGFSMRH, for which the amyloid nucleation score result is “inactive”.

With LILFPRKRHTGSM, the amyloid nucleation score entry was “inactive”. Under LILGTNYQIY stands 1.27 ± 0.17; under LIPIW, “inactive”; under LISMVYLNVRLCQ, “inactive”. Under LISTNKRHTAWRYCRGIPLE stands “inactive”; under LIYMLCYFRLLPTCGQVINR, “inactive”; under LKDWVRYGVEIQAVSMGILV, 0.221 ± 0.16. For LKEQSVQMAWP the value was “inactive”; for LKFLLRNILVRYYMDVGPVS, “inactive”; for LKGTCFLIPYLVTSGSSLVS, “inactive”. With LKLWYPLSFIDVRAPRA, the amyloid nucleation score entry is “inactive”. For LKNFIKWRGILPFFGTDFWM the value was “inactive”.

In the case of LKNFKSSAHLMQMIVLNFAY, the amyloid nucleation score entry is “inactive”. For LKNSL the value was “inactive”. Under LKPELIGMCGEGGLIAFRSQ stands “inactive”; under LKSST, “inactive”; under LKYFQVRT, “inactive”.

Substance LLAGYPLWKPKTCQYMKPWL had an amyloid nucleation score of 0.125 ± 0.24. Under LLAMRRIDWCSTPVTLILCR stands “inactive”; under LLCLVAKRYGMGRLF, “inactive”. Under LLDLDCYASLVSTTLEHMSG stands “inactive”. LLDVYLD: the amyloid nucleation score entry is “inactive”. Under LLFEMWTWSTVSRRAGDVLS stands “inactive”; under LLFRFMTGVVRLPRDNTYRK, “inactive”. For LLGCAYTGSTFHGNVGSFVL the value was “inactive”; for LLIDCYVDYSC, 0.105 ± 0.24; for LLIDNVCSNIARVMHKVWLW, “inactive”. For LLIKDYMHDHLGIILYTEEC the value was “inactive”; for LLLIGINVKMFWSFRVWLCN, “inactive”; for LLLSLGVLCYP, “inactive”.

LLLWGTHHSMIYYDGCLIFI: the amyloid nucleation score entry was “inactive”.

Take LLLYWRRTMVALRCTYFGLT: the amyloid nucleation score result is “inactive”. For LLNVTHSVAMTRTHGGVTYW the value was 0.776 ± 0.17. As for LLPKVLLP, the amyloid nucleation score entry is “inactive”.

Turning to LLSHYFHGMCMTHISGIFVM, the amyloid nucleation score entry is “inactive”. For LLSLAYVMRYI the value was 1.38 ± 0.068; for LLSREERTAVLLCTETQ, “inactive”. On to LLTHRFVAGFHRKAHSCCDS, for which the amyloid nucleation score entry was “inactive”.

For LLVCDREVAFAVACSFPCKR, the amyloid nucleation score entry is “inactive”. Under LLVMWWYRLTGPDGVSNWR stands “inactive”.

As to LLWCGFQDCEMKC, the amyloid nucleation score entry is “inactive”. Under LLWYKLSELR stands “inactive”; under LLYQFSELQMASWNNKKKEL, “inactive”. Under LLYSLWCEMMYPSKGARM stands “inactive”; under LLYVKFIVPYTTM, “inactive”; under LMASWTVRTYHGFSISENRN, 0.312 ± 0.26. Turning to LMDDTVQMYR, the amyloid nucleation score result is “inactive”. Under LMDPNGLVQGLFYMELLT stands “inactive”; under LMFNGILNQCSVMYLNRIYK, 2.97 ± 0.081. LMFRTLFK had an amyloid nucleation score of 0.062 ± 0.62. Under LMKMHQCDSKVWNEMGDASN stands “inactive”. For LMRSREEGAPSDRRSQAYED, the amyloid nucleation score result is “inactive”.
